Legend:
[1] = test system: T1, O=C(Cc1cccs1)N[C@@H]1C(=O)N2C(C(=O)O)=C(/C=C/c3ccc([N+](=O)[O-])cc3[N+](=O)[O-])CS[C@H]12; test: purified protein; format: biochemical, Escherichia coli; details: 50 mM Tris-HCl pH 8, room temperature
T1 construct: mature OmpF; His-tag and thrombin site deleted; beta-barrel trimer

[2] = target: the molecule itself; test: SDS-PAGE of the refolded protein; unfolded OmpF (20 mg/mL) refolded with 1% n-dodecyl-β-D-glucopyranoside and 1% n-dodecyl-β-D-maltopyranoside at 37 °C for 1-2 days; folding and oligomerization determined by 15% SDS-PAGE
[3] = OmpF1, 1.2 equiv. ZnCl2, 10 µM protein
[4] = OmpF2, 1.2 equiv. ZnCl2, 10 µM protein
[5] = OmpF1Y, 1.2 equiv. ZnCl2, 10 µM protein

“OmpF (outer membrane protein F; OmpF1, OmpF1Y, OmpF2 and evolved variants) (Escherichia coli K-12; R104H/R154H/Y124H)” gave a Km [1, 3] of 1400 ± 600 µM and a kcat [1, 3] of 0.017 ± 0.004 s⁻¹.

Work on “OmpF (outer membrane protein F; OmpF1, OmpF1Y, OmpF2 and evolved variants) (Escherichia coli K-12; L105H/R154H/Y124H)” yielded a Km [1, 4] of 1700 ± 600 µM and a kcat [1, 4] of 0.025 ± 0.005 s⁻¹.

In the case of “OmpF (outer membrane protein F; OmpF1, OmpF1Y, OmpF2 and evolved variants) (Escherichia coli K-12; R104H/R154H)”, the Km [1, 5] is reported as 2000 ± 1000 µM and the kcat [1, 5] is reported as 0.02 ± 0.01 s⁻¹.

B1: OmpF1 (OmpF R82H/Y102H/R132H) (natural protein, UniProt P02931 23-362, looked up)
chain: AEIYNKDGNKVDLYGKAVGLHYFSKGNGENSYGGNGDMTYARLGFKGETQINSDLTGYGQWEYNFQGNNSEGADAQTGNKTHLAFAGLKYADVGSFDYGRNHGVVYDALGYTDMLPEFGGDTAYSDDFFVGHVGGVATYRNSNFFGLVDGLNFAVQYLGKNERDTARRSNGDGVGGSISYEYEGFGIVGAYGAADRTNLQEAQPLGNGKKAEQWATGLKYDANNIYLAANYGETRNATPITNKFTNTSGFANKTQDVLLVAQYQFDFGLRPSIAYTKSKAKDVEGIGDVDLVNYFEVGATYYFNKNMSTYVDYIINQIDSDNKLGVGSDDTVAVGIVYQF
notes: outer membrane protein F (OmpF), UniProt P02931, expressed without the native 22-residue signal peptide; His-tag and thrombin site were deleted from the plasmid; Crystallised with 1.2 equiv. of Zn ion per protomer; also called R132H/Y102H/R82H; source: E. coli BL21(DE3)
For B1, the “stoichiometry N” value [2] was 3.

B2: OmpF2 (OmpF L83H/Y102H/R132H) (natural protein, UniProt P02931 23-362, looked up)
chain: AEIYNKDGNKVDLYGKAVGLHYFSKGNGENSYGGNGDMTYARLGFKGETQINSDLTGYGQWEYNFQGNNSEGADAQTGNKTRHAFAGLKYADVGSFDYGRNHGVVYDALGYTDMLPEFGGDTAYSDDFFVGHVGGVATYRNSNFFGLVDGLNFAVQYLGKNERDTARRSNGDGVGGSISYEYEGFGIVGAYGAADRTNLQEAQPLGNGKKAEQWATGLKYDANNIYLAANYGETRNATPITNKFTNTSGFANKTQDVLLVAQYQFDFGLRPSIAYTKSKAKDVEGIGDVDLVNYFEVGATYYFNKNMSTYVDYIINQIDSDNKLGVGSDDTVAVGIVYQF
notes: outer membrane protein F (OmpF), UniProt P02931, expressed without the native 22-residue signal peptide; His-tag and thrombin site were deleted from the plasmid; Crystallised with 1.2 equiv. of Zn ion per protomer; also called R132H/Y102H/L83H; source: E. coli BL21(DE3)
B2 was tested, and the “stoichiometry N” value [2] was 3.

From article PMC9652281, “Design and directed evolution of noncanonical β-stereoselective metalloglycosidases” (Nature Communications, 2022)
